The record followed here is publication PMC5176175, “Bg10: A Novel Metagenomics Alcohol-Tolerant and Glucose-Stimulated GH1 ß-Glucosidase Suitable for Lactose-Free Milk Preparation” (PLoS ONE, 2016).

For orientation: Km means the substrate concentration at which the rate is half of its maximum. As a reminder, the kcat is the number of substrate molecules converted per active site and unit of time at saturation.

Substrate in this data set: O=[N+]([O-])c1ccc(O[C@@H]2O[C@H](CO)[C@@H](O)[C@H](O)[C@H]2O)cc1
The experiment in a line: purified protein. The class given is biochemical, uncultured bacterium. The settings on record: pH 7.0, 37 °C, sodium phosphate buffer, 0.1-10 mM substrate.

B1: Bg10 (uncultured bacterium) (protein)
chain: MTAVRSESAELSQSPASYRFPPGFVWGAATAAYQIEGAAAEDGRTPSIWDTFSHTPGRVLNGDTGDIAADHYHRFRDDVALMSDLNLGAYRFSVSWSRVQPTGRGPAVQRGLDFYRQLVDELLEKGITPVATLYHWDLPQDLEDVGGWTVRDTPERFAEYTEIVAAALGDRVPYWTTLNEPWCSAYLGYGSGVHAPGRTDPEAALKAVHHLNLAHGRGIGVLRSLLPSTARTSITLNLHQIRPLSTSPADLDAARRIDAVGNRVWLGPILDGAYPQDVLADTGHLVDWDRLVRDGDLEEISRPIDLLGINYYTPTLVSDGRAHADGPAMPRNDGHGASAHSPWPGSEHVAFHLAPGETTAMRWAVDASGLYDLLMRIHREHPGLPMMVTENGAAYDDYISPEGAINDPDRIAYLRGHLSAVHRALADGADVRGYFLWSLLDNFEWAYGYSKRFGAVYVDFGTQRRIPKQSAHWYAAVARDNVLPDGPEEDGTS
notes: ORF10 in pET28a (EcoRI/HindIII), E. coli BL21(DE3), Ni-NTA and size exclusion
B1: the Km was 490 ± 120 µM and the kcat stood at 2.918 ± 0.115 s⁻¹.
